According to US9040017B2, “Liver-receptor imaging injection, dispensing method and pharmaceutical composition thereof” (INSTITUTE OF NUCLEAR ENERGY RESEARCH ATOMIC ENERGY COUNCIL, …, priority 2010, dated 2015):

Assay: Radiochemical purity before and after autoclave sterilization
Format: physicochemical
Details: DTPA-hexa-lactoside autoclaved in a lyophilized vial, then 111In radiolabel
Experimental: To test whether ^111In radiolabel of DTPA-hexa-lactoside was affected by autoclave sterilization, DTPA-hexa-lactoside was put into a lyophilized vial to set in an autoclave for sterilizing. After that, ^111In radiolabel proceeded. […] The comparison of radiochemical purity between before and after autoclave sterilization was illustrated in FIG. 2. First, a developing solvent of radio-ITLC of 10 mM sodium citrate buffer (about pH 5) were prepared as follows: 0.13 g citric acid monohydrate and 0.11 g trisodium citrate dehydrate were weighed precisely to dissolve in 100 ml water for injection. Then 10 ml of the solution were added in the developing tank as a developing solvent. The position away from the bottom of a TLC-SG film about 2 cm was marked with a pencil as the origin while the position away from the bottom about 9 cm was marked as the end. A few samples were taken by a micropipette to drop at the origin. Then, the TLC-SG film was put in a developing tank containing a buffer (about pH 5) of 10 mM sodium citrate to develop. The film were taken out to dry in the fume cabinet while the liquid level reached the end. […] The calculating formula is as follows: Radiochemical purity (%)=A/B×100%, wherein A refers to a calculated area peak of ^111In-DTPA-hexa-lactoside (Rf=0.0-0.1), and B refers to calculated area of all peaks.

Substance: DTPA derivatives of AHA-Asp[DCM-Lys(ah-Lac)3]2 [DTPA-hexa-lactoside]
- radiochemical purity of 111In after autoclave sterilization: < 90%
